Positions count from the first letter of the chain named.

First the molecules themselves.
B1: P1AE0289, CEA (A5B7) Fab (parental murine antibody) (Fab, V domains shown)
VH: EVKLVESGGGLVQPGGSLRLSCATSGFTFTDYYMNWVRQPPGKALEWLGFIGNKANGYTTEYSASVKGRFTISRDKSQSILYLQMNTLRAEDSATYYCTRDRGLRFYFDYWGQGTTLTVSS
VL: QTVLSQSPAILSASPGEKVTMTCRASSSVTYIHWYQQKPGSSPKSWIYATSNLASGVPARFSGSGSGTSYSLTISRVEAEDAATYYCQHWSSKPPTFGGGTKLEIK
B2: P1AE4135, Fab derived from P1AE2164 (Fab, V domains shown)
VH: EVQLLESGGGLVQPGGSLRLSCAASGFTFTDYYMNWVRQAPGKGLEWLGFIGNKANGYTTEYSASVKGRFTISRDKSKNTLYLQMNSLRAEDTATYYCTRDRGLRFYFDYWGQGTTVTVSS
VL: QTVLTQSPATLSLSPGERATLSCRASSSVTYIHWYQQKPGSSPKSWIYATSNLASGIPARFSGSGSGTDYTLTISSLEPEDFAVYYCQHWSSKPPTFGQGTKLEIK
B3: P1AE4141, Fab derived from P1AE2179 (Fab, V domains shown)
VH: B2 VH with L48V, T95V, T99A
VL: B2 VL
B4: P1AE4140, Fab derived from P1AE2177 (Fab, V domains shown)
VH: B2 VH with L48V, K76N, T95V
VL: B2 VL with Q1E, T2I, S41Q, S42A, K44R, Y70F
B5: P1AE4143, Fab derived from P1AE2182 (Fab, V domains shown)
VH: B2 VH with L48V, T95V, T99A
VL: B2 VL with Q1E, T2I, S41Q, S42A, K44R, Y70F
B6: P1AE4139, Fab derived from P1AE2176 (Fab, V domains shown)
VH: B2 VH with L48V, K76N, T95V
VL: B2 VL with Q1E, T2I, Y70F
B7: P1AE4136, Fab derived from P1AE2165 (Fab, V domains shown)
VH: B2 VH
VL: B2 VL with S41Q, S42A, K44R, S45L, W46L, Y70F
B8: P1AE4137, Fab derived from P1AE2166 (Fab, V domains shown)
VH: B2 VH
VL: B2 VL with Q1E, T2I, Y70F
B9: P1AE4138, Fab derived from P1AE2167 (Fab, V domains shown)
VH: B2 VH
VL: B2 VL with Q1E, T2I, S41Q, S42A, K44R, Y70F
B10: P1AE4142, Fab derived from P1AE2181 (Fab, V domains shown)
VH: B2 VH with L48V, T95V, T99A
VL: B2 VL with Q1E, T2I, Y70F

The experiment deals with human CEA (hu N(A2-B2)A-avi-His B) (human). The experiment in a line: SPR (Biacore T200), hu N(A2-B2)A-avi-His B immobilised, Fab as analyte, 1:1 Langmuir fit.
human CEA (hu N(A2-B2)A-avi-His B) (human), sequence (P06731 whole entry): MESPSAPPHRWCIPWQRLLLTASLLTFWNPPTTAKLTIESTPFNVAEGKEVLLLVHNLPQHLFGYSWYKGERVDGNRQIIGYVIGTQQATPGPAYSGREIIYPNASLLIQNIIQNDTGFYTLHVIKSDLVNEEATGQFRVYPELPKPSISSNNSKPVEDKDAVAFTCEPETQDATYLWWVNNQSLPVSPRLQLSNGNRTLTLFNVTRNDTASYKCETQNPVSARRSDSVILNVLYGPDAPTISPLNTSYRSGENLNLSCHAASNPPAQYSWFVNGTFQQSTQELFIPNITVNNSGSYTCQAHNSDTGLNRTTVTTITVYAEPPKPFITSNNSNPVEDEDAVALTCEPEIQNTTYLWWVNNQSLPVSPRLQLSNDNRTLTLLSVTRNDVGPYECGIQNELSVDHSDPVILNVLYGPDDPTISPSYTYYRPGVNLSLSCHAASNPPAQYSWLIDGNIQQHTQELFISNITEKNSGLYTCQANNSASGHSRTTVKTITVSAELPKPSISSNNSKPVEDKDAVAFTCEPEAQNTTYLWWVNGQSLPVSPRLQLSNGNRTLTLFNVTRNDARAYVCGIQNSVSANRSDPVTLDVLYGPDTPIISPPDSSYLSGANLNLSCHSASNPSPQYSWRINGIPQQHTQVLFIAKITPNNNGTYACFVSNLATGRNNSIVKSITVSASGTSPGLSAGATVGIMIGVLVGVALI
Consider B1, for which the Kd – broadly, the free concentration of one partner at which half of the binding sites on the other are occupied at equilibrium, for simple one-to-one binding – amounted to 0.559 nM. Take B2: the Kd is 1.7 nM. Next, B3: 1.83 nM; B4: 7.62 nM; B5: 2.92 nM. Consider B6, for which the Kd came to 7.58 nM. Next, B7: 1.25 nM; B8: 11.3 nM.

In turn, B9 showed a Kd of 1.47 nM. The molecule B10 yielded a Kd of 2.64 nM.
